What all share (format): biochemical
A short description of test [1]: Substrate specificity of GDHs produced by the E. coli transformant. Conditions: according to Examples 3 and 5.
Test [2] in a line: GDH activity of purified enzymes (DCIP/PMS assay). As to conditions: purified enzyme. The procedure:
Specifically, the activities of the flavin-bound GDHs are measured according to the following procedures. To initiate a reaction, 1.79 mL of 100 mM phosphate buffer (pH7.0), 0.08 mL of 1.25 M D-glucose solution, and 0.01 mL of 20 mM DCIP solution are mixed, followed by incubation at 37° C. for 5 minutes, and, subsequently, 0.02 mL of 20 mM PMS solution and 0.1 mL of an enzyme sample solution are added. Absorbance is measured at the initiation of the reaction and over time to determine a decrease in the absorbance at 600 nm (ΔA600) per minute due to the progress of the enzyme reaction and calculate flavin-bound GDH activity according to the following formula. […]
Solutions were mixed according to the following procedures, followed by absorbance measurement to examine GDH activity in the crude enzyme solution. […] A decrease in the absorbance at 600 nm (ΔA600) per minute due to the progress of the enzyme reaction after the initiation of the reaction was determined to calculate GDH activity according to the following formula. […]
GDH activity was measured as described in Example 1. GOD activity was measured using 4-aminoantipyrine (4-AA) and N-ethyl-N-(2-hydroxy-3-sulfopropyl)-3-methylaniline (TOOS) as described below. […] An increase in the absorbance at 555 nm (ΔA555) per minute due to the progress of the enzyme reaction was determined to calculate GOD activity according to the following formula.

Test [3] can be described thus: GOD activity (4-AA/TOOS/POD assay). Conditions: 37° C., 131 mM D-glucose. As to the method: GDH activity was measured as described in Example 1. GOD activity was measured using 4-aminoantipyrine (4-AA) and N-ethyl-N-(2-hydroxy-3-sulfopropyl)-3-methylaniline (TOOS) as described below. To initiate a reaction, 30.0 mL of 100 mM phosphate buffer (pH 7.0), 6.0 mL of 833 mM D-glucose solution, 0.3 mL of 25 mM 4-AA solution, 0.3 mL of 40 mM TOOS solution, and 0.3 mL of 500 U/mL POD solution were mixed, of which 3.0 mL was transferred into a test tube and incubated at 37° C. for five minutes, and 0.1 mL of an enzyme sample solution was added. An increase in the absorbance at 555 nm (ΔA555) per minute due to the progress of the enzyme reaction was determined to calculate GOD activity according to the following formula.
The formula indicates 3.1 as the liquid volume (mL) of reaction reagent plus enzyme reagent, 32.8 as millimolar extinction coefficient (cm^2/μmol) under the activity assay conditions, 0.5 as the number of quinoneimine dye molecules generated when one H2O2 molecule is reduced, 0.1 as the liquid volume (mL) of an enzyme solution, 1.0 as the optical path length (cm) of a cell, ΔA555blank as an increase in the absorbance at 555 nm per minute when 10 mM acetate buffer, instead of an enzyme sample solution, is added to initiate a reaction, and df as a dilution factor.

B1: NS2: GDH with a deletion to the 20th Ala and the 21st Gln substituted by Met (SEQ ID NO: 25) (protein)
chain: MQDTNSSSTDTYDYVIVGGGVAGLALASRISENKDVTVAVLESGPNANDRFVVYAPGMYGQAVGTDLCPLIPTTPQENMGNRSLTIATGRLLGGGSAINGLVWTRGGLKDYDAWEELGNPGWNGANLFKYFKKVENFTPPTPAQIEYGATYQKSAHGKKGPIDVSFTNYEFSQSASWNASLETLDFTALPDILNGTLAGYSTTPNILDPETVQRVDSYTGYIAPYTSRNNLNVLANHTVSRIQFAPKNGSEPLKATGVEWYPTGNKNQKQIIKARYEVIISSGAIGSPKLLEISGIGNKDIVSAAGVESLIDLPGVGSNMQDHVHAITVSTTNITGYTTNSVFVNETLAQEQREEYEANKTGIWATTPNNLGYPTPEQLFNGTEFVSGKEFADKIRNSTDEWANYYASTNASNVELLKKQYAIVASRYEENYLSPIEINFTPGYEGSGNVDLQNNKYQTVNHVLIAPLSRGYTHINSSDVEDHSVINPQYYSHPMDIDVHIASTKLAREIITASPGLGDINSGEIEPGMNITSEDDLRSWLSNNVRSDWHPVGTCAMLPKELGGVVSPALMVYGTSNLRVVDASIMPLEVSSHLMQPTYGIAEKAADIIKNFYKTQHKNQN
modifications: NS2
Take B1: in test [1], the “substrate specificity (in words)” value was “almost comparable with that of the purified GDH obtained in Example 2”.

B2: NS4: GDH with a deletion to the 27th Ser and the 28st Ser substituted by Met (SEQ ID NO: 32) (protein)
chain: MTDTYDYVIVGGGVAGLALASRISENKDVTVAVLESGPNANDRFVVYAPGMYGQAVGTDLCPLIPTTPQENMGNRSLTIATGRLLGGGSAINGLVWTRGGLKDYDAWEELGNPGWNGANLFKYFKKVENFTPPTPAQIEYGATYQKSAHGKKGPIDVSFTNYEFSQSASWNASLETLDFTALPDILNGTLAGYSTTPNILDPETVQRVDSYTGYIAPYTSRNNLNVLANHTVSRIQFAPKNGSEPLKATGVEWYPTGNKNQKQIIKARYEVIISSGAIGSPKLLEISGIGNKDIVSAAGVESLIDLPGVGSNMQDHVHAITVSTTNITGYTTNSVFVNETLAQEQREEYEANKTGIWATTPNNLGYPTPEQLFNGTEFVSGKEFADKIRNSTDEWANYYASTNASNVELLKKQYAIVASRYEENYLSPIEINFTPGYEGSGNVDLQNNKYQTVNHVLIAPLSRGYTHINSSDVEDHSVINPQYYSHPMDIDVHIASTKLAREIITASPGLGDINSGEIEPGMNITSEDDLRSWLSNNVRSDWHPVGTCAMLPKELGGVVSPALMVYGTSNLRVVDASIMPLEVSSHLMQPTYGIAEKAADIIKNFYKTQHKNQN
modifications: NS4
Take B2: in test [1], the “substrate specificity (in words)” value is on record as “almost comparable with that of the purified GDH obtained in Example 2”.

B3: GOD derived from Aspergillus niger: commercial glucose oxidase derived from Aspergillus niger (GOD, biozyme laboratories) (protein, UniProt P13006 17-605, looked up)
Glucose oxidase: LPHYIRSNGIEASLLTDPKDVSGRTVDYIIAGGGLTGLTTAARLTENPNISVLVIESGSYESDRGPIIEDLNAYGDIFGSSVDHAYETVELATNNQTALIRSGNGLGGSTLVNGGTWTRPHKAQVDSWETVFGNEGWNWDNVAAYSLQAERARAPNAKQIAAGHYFNASCHGVNGTVHAGPRDTGDDYSPIVKALMSAVEDRGVPTKKDFGCGDPHGVSMFPNTLHEDQVRSDAAREWLLPNYQRPNLQVLTGQYVGKVLLSQNGTTPRAVGVEFGTHKGNTHNVYAKHEVLLAAGSAVSPTILEYSGIGMKSILEPLGIDTVVDLPVGLNLQDQTTATVRSRITSAGAGQGQAAWFATFNETFGDYSEKAHELLNTKLEQWAEEAVARGGFHNTTALLIQYENYRDWIVNHNVAYSELFLDTAGVASFDVWDLLPFTRGYVHILDKDPYLHHFAYDPQYFLNELDLLGQAAATQLARNISNSGAMQTYFAGETIPGDNLAYDADLSAWTEYIPYHFRPNYHGVGTCSMMPKEMGGVVDNAARVYGVQGLRVIDGSIPPTQMSSHVMTVFYAMALKISDAILEDYASMQ
Consider B3, for which the GDH activity in test [2] came to 3.50 U/mL. Further, the GOD activity in test [3] is on record as 9.38 U/mL.

B4: NS3: GDH with a deletion to the 27th Ser and Met added to the 28st Ser (SEQ ID NO: 30) (protein)
chain: MSTDTYDYVIVGGGVAGLALASRISENKDVTVAVLESGPNANDRFVVYAPGMYGQAVGTDLCPLIPTTPQENMGNRSLTIATGRLLGGGSAINGLVWTRGGLKDYDAWEELGNPGWNGANLFKYFKKVENFTPPTPAQIEYGATYQKSAHGKKGPIDVSFTNYEFSQSASWNASLETLDFTALPDILNGTLAGYSTTPNILDPETVQRVDSYTGYIAPYTSRNNLNVLANHTVSRIQFAPKNGSEPLKATGVEWYPTGNKNQKQIIKARYEVIISSGAIGSPKLLEISGIGNKDIVSAAGVESLIDLPGVGSNMQDHVHAITVSTTNITGYTTNSVFVNETLAQEQREEYEANKTGIWATTPNNLGYPTPEQLFNGTEFVSGKEFADKIRNSTDEWANYYASTNASNVELLKKQYAIVASRYEENYLSPIEINFTPGYEGSGNVDLQNNKYQTVNHVLIAPLSRGYTHINSSDVEDHSVINPQYYSHPMDIDVHIASTKLAREIITASPGLGDINSGEIEPGMNITSEDDLRSWLSNNVRSDWHPVGTCAMLPKELGGVVSPALMVYGTSNLRVVDASIMPLEVSSHLMQPTYGIAEKAADIIKNFYKTQHKNQN
modifications: NS3
Take B4: the “substrate specificity (in words)” value in test [1] is listed as “almost comparable with that of the purified GDH obtained in Example 2”.

B5: NS1: GDH with a deletion to the 20th Ala and Met added to the 21st Gln (SEQ ID NO: 23) (protein)
chain: MQQDTNSSSTDTYDYVIVGGGVAGLALASRISENKDVTVAVLESGPNANDRFVVYAPGMYGQAVGTDLCPLIPTTPQENMGNRSLTIATGRLLGGGSAINGLVWTRGGLKDYDAWEELGNPGWNGANLFKYFKKVENFTPPTPAQIEYGATYQKSAHGKKGPIDVSFTNYEFSQSASWNASLETLDFTALPDILNGTLAGYSTTPNILDPETVQRVDSYTGYIAPYTSRNNLNVLANHTVSRIQFAPKNGSEPLKATGVEWYPTGNKNQKQIIKARYEVIISSGAIGSPKLLEISGIGNKDIVSAAGVESLIDLPGVGSNMQDHVHAITVSTTNITGYTTNSVFVNETLAQEQREEYEANKTGIWATTPNNLGYPTPEQLFNGTEFVSGKEFADKIRNSTDEWANYYASTNASNVELLKKQYAIVASRYEENYLSPIEINFTPGYEGSGNVDLQNNKYQTVNHVLIAPLSRGYTHINSSDVEDHSVINPQYYSHPMDIDVHIASTKLAREIITASPGLGDINSGEIEPGMNITSEDDLRSWLSNNVRSDWHPVGTCAMLPKELGGVVSPALMVYGTSNLRVVDASIMPLEVSSHLMQPTYGIAEKAADIIKNFYKTQHKNQN
modifications: NS1
For the molecule B5, the “substrate specificity (in words)” value in test [1] is “almost comparable with that of the purified GDH obtained in Example 2”.

Values taken from patent US9238802B2, “E. coli transformant, method for producing flavin-bound glucose dehydrogenase using the same, and mutant flavin-bound glucose dehydrogenases” (KIKKOMAN CORPORATION, priority 2010, dated 2016).
